Laboratory results as given in patent publication US20230183347A1.

Target: human PD-1 (hPD-1) expressed on T cells (DO11.10 T cell hybridomas, DO11.10 mouse CD4+ T cells, activated human CD4+ T cells) (human) (UniProt Q15116)
Experiment: cell-based or functional assay

Sequence of UniProt Q15116 (Q15116 25-288 limits assumed): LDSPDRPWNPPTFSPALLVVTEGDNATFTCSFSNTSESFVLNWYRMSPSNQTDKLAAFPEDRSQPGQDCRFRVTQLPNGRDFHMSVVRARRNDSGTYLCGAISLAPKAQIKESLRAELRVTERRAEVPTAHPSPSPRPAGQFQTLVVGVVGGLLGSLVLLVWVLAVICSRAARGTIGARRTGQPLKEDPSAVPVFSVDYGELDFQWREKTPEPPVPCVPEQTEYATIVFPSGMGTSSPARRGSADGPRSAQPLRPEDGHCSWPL

IC50 of inhibitory activity on IL-2 production: 1 mg/L
Substance: anti-human PD-1 antibody (clone: J116, Invitrogen)
